T1: B7-H3 (4Ig-B7-H3) endogenously expressed on MDA-MB-231 cells (UniProt Q5ZPR3 29-534, limits assumed)
T1 construct: whole, on cells; also called 细胞表面的B7-H3抗原
T1 sequence (looked up): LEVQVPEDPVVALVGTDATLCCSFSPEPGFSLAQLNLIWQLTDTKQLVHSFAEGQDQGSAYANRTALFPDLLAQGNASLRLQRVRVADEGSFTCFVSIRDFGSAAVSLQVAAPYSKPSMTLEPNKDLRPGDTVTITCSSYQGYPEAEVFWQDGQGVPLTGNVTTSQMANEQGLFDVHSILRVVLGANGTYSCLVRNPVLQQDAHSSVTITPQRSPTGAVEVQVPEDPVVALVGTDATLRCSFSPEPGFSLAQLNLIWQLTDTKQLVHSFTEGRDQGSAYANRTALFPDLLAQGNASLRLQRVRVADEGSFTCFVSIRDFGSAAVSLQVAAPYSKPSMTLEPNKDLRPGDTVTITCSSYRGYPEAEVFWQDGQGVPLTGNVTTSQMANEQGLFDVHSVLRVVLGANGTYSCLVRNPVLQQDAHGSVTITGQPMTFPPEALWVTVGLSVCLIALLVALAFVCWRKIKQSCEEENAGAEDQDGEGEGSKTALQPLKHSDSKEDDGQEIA

T2: 人B7-H3变体1(4Ig-B7-H3) on stable cells 293-h4Ig-B7-H3-copGFP (human, UniProt Q5ZPR3 29-534)
T2 construct: Full-length CDS cloned in pCDH-EF1-T2A-copGFP and expressed on stably transduced cells; residues left by T2A cleavage not described
T2 sequence: T1 sequence (looked up)

B1: scFv-27B4-H4-L3 (scFv)
scFv: EVQLVQSGAEVKKPGESLKISCKASGYTFTTYWIGWVRQMPGKGLEWMGIIYPGDGGSRYSPSFQGQVTISADKSISTAYLQWSSLKASDTAMYYCARGGNYISFPMYYWGQGTLVTVSSGGGGSGGGGSGGGGSGGGGASEIVMTQSPATLSVSPGERATLSCKASRGVSTALAWYQQKPGQAPRLLIYWASTRATGIPARFSGSGSGTEFTLTISSLQSEDFAVYYCQQHYDTPYTFGQGTKLEIK
notes: Expressed from phage display vector pXY in TG1, purified on a nickel column
B2: scFv-27B4-H3-L1 (scFv)
scFv: QVQLVQSGSELKKPGASVKVSCKASGYTFTTYWMNWVRQAPGQGLEWMGWIYPGDGGSTYAQGFTGRFVFSLDTSVSTAYLQICSLKAEDTAVYYCARGGNYISFPMYYWGQGTLVTVSSGGGGSGGGGSGGGGSGGGGASDIQMTQSPSSLSASMGDRVTITCKASRGVSTALNWYQQKPGKAPKLLIYWASSLQSGVPSRFSGSGSGTDFTLTISSLQPEDFATYYCQQHYDTPYTFGQGTKLEIK
notes: VH-linker-VL in phage display vector pXY, expressed in TG1, purified on a nickel column
B3: scFv-27B4-H3-L2 (scFv)
scFv: B2 scFv with D142V, Q144W, S151L, M156T, T163S, N175A, K186E, S194T, S218C, P221S
notes: as for B2
B4: scFv-27B4-H2-L2 (scFv)
scFv: QVQLVQSGAEVKKPGSSVKVSCKASGYTFTTYWISWVRQAPGQGLEWMGGIYPGDGGSNYAQKFQGRVTITADESTSTAYMELSSLRSEDTAVYYCARGGNYISFPMYYWGQGTLVTVSSGGGGSGGGGSGGGGSGGGGASVIWMTQSPSLLSASTGDRVTISCKASRGVSTALAWYQQKPGKAPELLIYWASTLQSGVPSRFSGSGSGTDFTLTISCLQSEDFATYYCQQHYDTPYTFGQGTKLEIK
notes: as for B1
B5: scFv-27B4-H3-L3 (scFv)
scFv: QVQLVQSGSELKKPGASVKVSCKASGYTFTTYWMNWVRQAPGQGLEWMGWIYPGDGGSTYAQGFTGRFVFSLDTSVSTAYLQICSLKAEDTAVYYCARGGNYISFPMYYWGQGTLVTVSSGGGGSGGGGSGGGGSGGGGASEIVMTQSPATLSVSPGERATLSCKASRGVSTALAWYQQKPGQAPRLLIYWASTRATGIPARFSGSGSGTEFTLTISSLQSEDFAVYYCQQHYDTPYTFGQGTKLEIK
notes: as for B2
B6: scFv-27B4-H3-L4 (scFv)
scFv: QVQLVQSGSELKKPGASVKVSCKASGYTFTTYWMNWVRQAPGQGLEWMGWIYPGDGGSTYAQGFTGRFVFSLDTSVSTAYLQICSLKAEDTAVYYCARGGNYISFPMYYWGQGTLVTVSSGGGGSGGGGSGGGGSGGGGASEIVLTQSPDFQSVTPKEKVTITCKASRGVSTALHWYQQKPDQSPKLLIKWASQSFSGVPSRFSGSGSGTDFTLTINSLEAEDAATYYCQQHYDTPYTFGQGTKLEIK
notes: as for B2
B7: scFv-27B4-H3-L5 (scFv)
scFv: QVQLVQSGSELKKPGASVKVSCKASGYTFTTYWMNWVRQAPGQGLEWMGWIYPGDGGSTYAQGFTGRFVFSLDTSVSTAYLQICSLKAEDTAVYYCARGGNYISFPMYYWGQGTLVTVSSGGGGSGGGGSGGGGSGGGGASDIVMTQTPLSLSVTPGQPASISCKASRGVSTALYWYLQKPGQPPQLLIYWASNRFSGVPDRFSGSGSGTDFTLKISRVEAEDVGVYYCQQHYDTPYTFGQGTKLEIK
notes: as for B2
B8: scFv-27B4-H4-L5 (scFv)
scFv: EVQLVQSGAEVKKPGESLKISCKASGYTFTTYWIGWVRQMPGKGLEWMGIIYPGDGGSRYSPSFQGQVTISADKSISTAYLQWSSLKASDTAMYYCARGGNYISFPMYYWGQGTLVTVSSGGGGSGGGGSGGGGSGGGGASDIVMTQTPLSLSVTPGQPASISCKASRGVSTALYWYLQKPGQPPQLLIYWASNRFSGVPDRFSGSGSGTDFTLKISRVEAEDVGVYYCQQHYDTPYTFGQGTKLEIK
notes: as for B2
B9: scFv-27B4-H4-L4 (scFv)
scFv: EVQLVQSGAEVKKPGESLKISCKASGYTFTTYWIGWVRQMPGKGLEWMGIIYPGDGGSRYSPSFQGQVTISADKSISTAYLQWSSLKASDTAMYYCARGGNYISFPMYYWGQGTLVTVSSGGGGSGGGGSGGGGSGGGGASEIVLTQSPDFQSVTPKEKVTITCKASRGVSTALHWYQQKPDQSPKLLIKWASQSFSGVPSRFSGSGSGTDFTLTINSLEAEDAATYYCQQHYDTPYTFGQGTKLEIK
notes: as for B2
B10: scFv-27B4-H1-L1 (scFv)
scFv: QVQLVQSGAEVKKPGASVKVSCKASGYTFTTYWMHWVRQAPGQGLEWMGIIYPGDGGSSYAQKFQGRVTMTRDTSTSTVYMELSSLRSEDTAVYYCARGGNYISFPMYYWGQGTLVTVSSGGGGSGGGGSGGGGSGGGGASDIQMTQSPSSLSASMGDRVTITCKASRGVSTALNWYQQKPGKAPKLLIYWASSLQSGVPSRFSGSGSGTDFTLTISSLQPEDFATYYCQQHYDTPYTFGQGTKLEIK
notes: as for B2
B11: scFv-27B4-H2-L1 (scFv)
scFv: B10 scFv with A16S, M34I, H35S, I50G, S59N, M70I, R72A, T74E, V79A
notes: as for B2
B12: scFv-27B4-H1-L2 (scFv)
scFv: B4 scFv with S16A, I34M, S35H, G50I, N59S, I70M, A72R, E74T, A79V
notes: as for B2
B13: scFv-27B4-H1-L5 (scFv)
scFv: QVQLVQSGAEVKKPGASVKVSCKASGYTFTTYWMHWVRQAPGQGLEWMGIIYPGDGGSSYAQKFQGRVTMTRDTSTSTVYMELSSLRSEDTAVYYCARGGNYISFPMYYWGQGTLVTVSSGGGGSGGGGSGGGGSGGGGASDIVMTQTPLSLSVTPGQPASISCKASRGVSTALYWYLQKPGQPPQLLIYWASNRFSGVPDRFSGSGSGTDFTLKISRVEAEDVGVYYCQQHYDTPYTFGQGTKLEIK
notes: as for B2
B14: scFv-27B4-H2-L5 (scFv)
scFv: B13 scFv with A16S, M34I, H35S, I50G, S59N, M70I, R72A, T74E, V79A
notes: as for B2
B15: scFv-27B4-H1-L4 (scFv)
scFv: QVQLVQSGAEVKKPGASVKVSCKASGYTFTTYWMHWVRQAPGQGLEWMGIIYPGDGGSSYAQKFQGRVTMTRDTSTSTVYMELSSLRSEDTAVYYCARGGNYISFPMYYWGQGTLVTVSSGGGGSGGGGSGGGGSGGGGASEIVLTQSPDFQSVTPKEKVTITCKASRGVSTALHWYQQKPDQSPKLLIKWASQSFSGVPSRFSGSGSGTDFTLTINSLEAEDAATYYCQQHYDTPYTFGQGTKLEIK
notes: as for B2
B16: scFv-27B4-H2-L4 (scFv)
scFv: B15 scFv with A16S, M34I, H35S, I50G, S59N, M70I, R72A, T74E, V79A
notes: as for B2
B17: scFv-27B4-H1-L3 (scFv)
scFv: QVQLVQSGAEVKKPGASVKVSCKASGYTFTTYWMHWVRQAPGQGLEWMGIIYPGDGGSSYAQKFQGRVTMTRDTSTSTVYMELSSLRSEDTAVYYCARGGNYISFPMYYWGQGTLVTVSSGGGGSGGGGSGGGGSGGGGASEIVMTQSPATLSVSPGERATLSCKASRGVSTALAWYQQKPGQAPRLLIYWASTRATGIPARFSGSGSGTEFTLTISSLQSEDFAVYYCQQHYDTPYTFGQGTKLEIK
notes: as for B2
B18: scFv-27B4-H2-L3 (scFv)
scFv: B17 scFv with A16S, M34I, H35S, I50G, S59N, M70I, R72A, T74E, V79A
notes: as for B1
B19: scFv-27B4-H4-L1 (scFv)
scFv: EVQLVQSGAEVKKPGESLKISCKASGYTFTTYWIGWVRQMPGKGLEWMGIIYPGDGGSRYSPSFQGQVTISADKSISTAYLQWSSLKASDTAMYYCARGGNYISFPMYYWGQGTLVTVSSGGGGSGGGGSGGGGSGGGGASDIQMTQSPSSLSASMGDRVTITCKASRGVSTALNWYQQKPGKAPKLLIYWASSLQSGVPSRFSGSGSGTDFTLTISSLQPEDFATYYCQQHYDTPYTFGQGTKLEIK
notes: as for B2
B20: scFv-27B4-H4-L2 (scFv)
scFv: B19 scFv with D142V, Q144W, S151L, M156T, T163S, N175A, K186E, S194T, S218C, P221S
notes: as for B1

Numbering of substitutions follows the chain as printed.

One experiment addresses T1, B7-H3 (4Ig-B7-H3) endogenously …. The experiment can be described thus: FACS, MDA-MB-231 cells. (In flow cytometry, cells or beads pass a laser one at a time.)
As to B1, the binding result is “binds”.

Turning to B2, the binding result was “binds”.

Turning to B3, the binding result is on record as “binds”.

As to B4, the binding result was “binds”.

With B5, the binding result is reported as “binds”.

With B6, the binding result is reported as “binds”.

With B7, the binding result is recorded as “binds”.

As for B8, the binding result is “binds”.

B9: the binding result is on record as “binds”.

Regarding B10, the binding result is “binds”.

Take B11: the binding result is listed as “binds”.

Take B12: the binding result is given as “binds”.

On to B13, for which the binding result is reported as “binds”.

On to B14, for which the binding result is “binds”.

Consider B15, for which the binding result was “binds”.

For B16, the binding result was “binds”.

As to B17, the binding result is on record as “binds”.

Turning to B18, the binding result is “binds”.

Regarding B19, the binding result is “binds”.

On to B20, for which the binding result is “binds”.

For the next experiment, the target named is T2, 人B7-H3变体1(4Ig-B7-H3) on stable cells …. As to the kind of experiment: FACS, 293-h4Ig-B7-H3-copGFP stable cells.
Take B1: the binding result was “binds”.

Take B2: the binding result was “binds”.

B3: the binding result is given as “binds”.

Take B4: the binding result is “binds”.

In the case of B5, the binding result was “binds”.

As for B6, the binding result was “binds”.

As to B7, the binding result was “binds”.

Take B8: the binding result is “binds”.

B9: the binding result is “binds”.

For B10, the binding result is recorded as “binds”.

With B11, the binding result is “binds”.

Take B12: the binding result is reported as “binds”.

On to B13, for which the binding result is listed as “binds”.

Take B14: the binding result was “binds”.

On to B15, for which the binding result is listed as “binds”.

For the molecule B16, the binding result is reported as “binds”.

In the case of B17, the binding result is reported as “binds”.

With B18, the binding result is “binds”.

In the case of B19, the binding result is reported as “binds”.

In the case of B20, the binding result is “binds”.

The values above are taken from CN113683697A (SHANGHAI XIANGYAO BIOTECHNOLOGY CO LTD, dated 2021).
